Patent publication US9435807B2, “Use of leucyl tRNA synthetase” (Medicinal Bioconvergence Research Center, priority 2011, dated 2016)

Tests used:
[1] = biological target: T1, LRS-(1-1176) / RagD binding (Homo sapiens, UniProt Q9NQL2); assay: ELISA for binding between LRS and RagD; conditions: GST-RagD on plate coated with His-LRS-(1-1176), fragment added during incubation
T1 construct: Purified GST-RagD was incubated with His-LRS-(1-1176) coated on a plate; made in house; host or cells: E. coli BL21(DE3) for His-LRS (pET 16a); E. coli BL21 for GST-RagD (pGEX4T3)
Protocol: FIGS. 13a and 13b show ELISA assay results for measuring binding affinity between LRS and RagD.
In FIG. 13b, the comparison result of binding affinity for control (GST), RagD and RagD+LRS-(759-1176) on a 96 well plate coated with LRS-(1-1176) is shown.
First, each fragment of LRS was synthesized by PCR amplification using the cDNA of LRS as a template and a primer set (Table 1) specific for each fragment. The PCR amplification was performed under the following conditions: predenaturation of the template DNA at 95° C. for 2 min; and then 30 cycles, each consisting of 30 sec at 95° C., 30 sec at 56° C., and 3 min and 30 sec at 72° C.; followed by final extension at 72° C. for 10 min. Each of the PCR products was digested with NdeI and BamHI and ligated into a pET 16a vector (Novagen) digested with the same restriction enzymes. E. coli BL21(DE3) cells were transformed with the vector and cultured to induce the expression of peptides. Each peptide expressed as a His-tag fusion protein was purified by Ni-chelating agarose. […]
A fragment of RagD was synthesized by PCR amplification using the cDNA of […] as a template and a primer set (Table 1) specific for each fragment. […] Each peptide expressed as a GST-tag fusion protein was purified by GSH agarose. […]

RagD GTPase = biological target: T2, RagD GTPase (Homo sapiens, UniProt Q9NQL2); assay: In vitro GTPase assay; type: biochemical; conditions: LRS (759-1176 a.a) fragment incubated with RagD, 37° C.
T2 construct: made in house; host or cells: LRS fragment: E. coli BL21(DE3), pET 16a
Protocol: In FIG. 7a, the indicated amounts of Histagged LRS (759-1176 a.a) fragment were incubated with 0.15 pM RagD for 20 min at 37° C. The error bars represent mean S.D. (n=3).
In FIG. 7b, his-tagged LRS fragments (0.3 μM) were incubated with RagD for the indicated times. The error bars represent mean S.D. (n=3).
In FIG. 7d, the effects of LRS WT and mutants on GTP hydrolysis of RagD is shown. Purified LRS WT (759-1176 a.a) fragment or mutants (H844A, R845A) fragments were incubated with RagD for 20 min at 37° C. The error bars represent mean S.D. (n=3).
GTPase assays were conducted in assay buffer (20 mM piperazine-N,N9-bis(2-ethanesulfonic acid), 20 mM HEPES, 5 mM MgCl2, 125 mM NaCl, 5 mM KCl at pH 7.0, 0.5 mM GTP) containing 0.1% bovine serum albumin in a final volume of […] using GTPase assay kit (Innova Biosciences) according to manufacturer's instructions.

T2 sequence (Q9NQL2 whole entry, the tested form may be a part): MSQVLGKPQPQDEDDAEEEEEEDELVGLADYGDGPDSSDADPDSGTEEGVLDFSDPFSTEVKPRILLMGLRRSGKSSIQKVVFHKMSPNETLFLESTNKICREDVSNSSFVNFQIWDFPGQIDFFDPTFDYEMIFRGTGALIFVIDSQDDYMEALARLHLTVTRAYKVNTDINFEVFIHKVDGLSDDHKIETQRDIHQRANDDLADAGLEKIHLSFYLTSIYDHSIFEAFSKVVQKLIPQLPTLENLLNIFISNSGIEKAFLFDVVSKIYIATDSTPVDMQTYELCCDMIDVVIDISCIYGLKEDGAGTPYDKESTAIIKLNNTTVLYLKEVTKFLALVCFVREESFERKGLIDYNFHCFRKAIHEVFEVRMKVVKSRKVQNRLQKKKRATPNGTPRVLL
T1 sequence (Q9NQL2 whole entry, the tested form may be a part): as above

Row | Molecule | binding between RagD and LRS-(1-1176) [1] | binding between RagD and LRS-(1-1176) ([1]; listed as LRS-(759-1176)) | GTP hydrolysis by RagD GTPase (GAP activity) (RagD GTPase)
1 | His-LRS-(759-1176): His-tagged fragment of leucyl tRNA synthetase, residues 759-1176 (protein, left off: small tags and cut ends) MADAGILRLYTWVEWVKEMVANWDSLRSGPASTFNDRVFASELNAGIIKTDQNYEKMMFKEALKTGFFEFQAAKDKYRELAVEGMHRELVFRFIEVQTLLLAPFCPHLCEHIWTLLGKPDSIMNASWPVAGPVNEVLIHSSQYLMEVTHDLRLRLKNYMMPAKGKKTDKQPLQKPSHCTIYVAKNYPPWQHTTLSVLRKHFEANNGKLPDNKVIASELGSMPELKKYMKKVMPFVAMIKENLEKMGPRILDLQLEFDEKAVLMENIVYLTNSLELEHIEVKFASEAEDKIREDCCPGKPLNVFRIEPGVSVSLVNPQPSNGHFSTKIEIRQGDNCDSIIRRLMKMNRGIKDLSKVKLMRFDDPLLGPRRVPVLGKEYTEKTPISEHAVFNVDLMSKKIHLTENGIRVDIGDTIIYLVH | inhibited | decreased the binding affinity | enhanced GTP hydrolysis by RagD GTPase in dose- and time-dependent manner
2 | H844A: LRS (759-1176 a.a) fragment with alanine mutation H844A in the putative GAP motif (protein, UniProt Q9P2J5 759-1176, looked up, variant H844A) MADAGILRLYTWVEWVKEMVANWDSLRSGPASTFNDRVFASELNAGIIKTDQNYEKMMFKEALKTGFFEFQAAKDKYRELAVEGMARELVFRFIEVQTLLLAPFCPHLCEHIWTLLGKPDSIMNASWPVAGPVNEVLIHSSQYLMEVTHDLRLRLKNYMMPAKGKKTDKQPLQKPSHCTIYVAKNYPPWQHTTLSVLRKHFEANNGKLPDNKVIASELGSMPELKKYMKKVMPFVAMIKENLEKMGPRILDLQLEFDEKAVLMENIVYLTNSLELEHIEVKFASEAEDKIREDCCPGKPLNVFRIEPGVSVSLVNPQPSNGHFSTKIEIRQGDNCDSIIRRLMKMNRGIKDLSKVKLMRFDDPLLGPRRVPVLGKEYTEKTPISEHAVFNVDLMSKKIHLTENGIRVDIGDTIIYLVH |  |  | lost their GAP activity
3 | R845A: LRS (759-1176 a.a) fragment with alanine mutation R845A in the putative GAP motif (protein, UniProt Q9P2J5 759-1176, looked up, variant R845A) MADAGILRLYTWVEWVKEMVANWDSLRSGPASTFNDRVFASELNAGIIKTDQNYEKMMFKEALKTGFFEFQAAKDKYRELAVEGMHAELVFRFIEVQTLLLAPFCPHLCEHIWTLLGKPDSIMNASWPVAGPVNEVLIHSSQYLMEVTHDLRLRLKNYMMPAKGKKTDKQPLQKPSHCTIYVAKNYPPWQHTTLSVLRKHFEANNGKLPDNKVIASELGSMPELKKYMKKVMPFVAMIKENLEKMGPRILDLQLEFDEKAVLMENIVYLTNSLELEHIEVKFASEAEDKIREDCCPGKPLNVFRIEPGVSVSLVNPQPSNGHFSTKIEIRQGDNCDSIIRRLMKMNRGIKDLSKVKLMRFDDPLLGPRRVPVLGKEYTEKTPISEHAVFNVDLMSKKIHLTENGIRVDIGDTIIYLVH |  |  | lost their GAP activity
